Positions count from the first letter of the chain named.

The values below come from patent US10640563B2, “Anti-B7-H3 antibodies and antibody drug conjugates” (AbbVie Inc., priority 2016, dated 2020).

B1: chAb4-CZ (conjugate)
VH: QVQLQQPGAELVKPGASVKLSCKASGYSFTSYWMHWVKQRPGQGLEWIGMIHPNSGSNNYNEKFKSKATLTVDKSSNTAYMQLSSLTSEDSAVYYCARRLGLHFDYWGQGTTLTVSS
VL: DIVMTQSQKFMSTPVGDRVSITCKASQNVGTAVAWYQQKPGQSPKLLIYSASNRYTGVPDRFTGSGSGTDFTLTISNMQSEDLADYFCQQYSSYPYTFGGGTKLEIK
B2: chAb14-CZ (conjugate)
VH: EVKLVESGGGLVKPGGSLKLSCAASGFTFSSYGMSWVRQTPEKRLEWVATISGGGTNTYYPDSVEGRFTISRDNAKNFLYLQMSSLRSEDTALYYCARHYGSQTMDYWGQGTSVTVSS
VL: DIQMTQSPASLSASVGETVTITCRTSGNIHNYLTWYQQKQGKSPQLLVYNAKTLADGVPSRFSGSGSGTQFSLKINSLQPEDFGSYYCQHFWSIMWTFGGGTKLEIK
B3: chAb11-CZ (conjugate)
VH: EVKLVESGGGLVQPGGSLRLSCATSGFTFTNYYMSWVRQPPGKALEWLGFIRNKANDYTTEYSASVKGRFTISRDNSQSILYLQMNTLRAEDSATYYCARESPGNPFAYWGQGTLVTVSA
VL: DIVMTQSPSSLTVTAGEKVTMTCKSSQSLLNSGTQKNFLTWYQQKPGQPPKLLIYWASTRESGVPDRFTGSGSGTDFTLTISSVQAEDLAVYFCQNDYIYPLTFGAGTKLELK
B4: chAb13-CZ (conjugate)
VH: DVQLQESGPDLVKPSQSLSLTCTVTGYSITSGYSWHWIRQFPGNKLEWMGYIHSSGSTNYNPSLKSRISINRDTSKNQFFLQLNSVTTEDTATYYCAGYDDYFEYWGQGTTLTVSS
VL: DIVMTQSQKFMSTSVGDRVSVTCKASQNVGFNVAWYQQKPGQSPKALIYSASYRYSGVPDRFTGSGSGTDFTLTISNVQSEDLAEYFCQQYNSYPFTFGSGTKLEIK
B5: chAb6-CZ (conjugate)
VH: QVQLQQSGAELMKPGASVKISCKATGYTFSRYWIEWVKQRPGHGLEWIGEILPGSGSTNYNEKFKGKATFTADTSSNTAYMQVSSLTSEDSAVHYCARRGYGYVPYALDYWGQGTSVTVSS
VL: EIQMTQTTSSLSASLGDRVTISCRASQDISNSLNWYQQKPDGTVNLLIYYTSRLYSGVPSRFSGSGSGTDYSLTISNLEQEDIATYFCQQGNTLPYTFGGGTKLEIK
B6: chAb16-CZ (conjugate)
VH: EVKLLESGGGLVQPGGSLKLSCAASGFDFSRYWMSWVRQAPGKGLEWIGEINPDSSTINYTPSLKDKFIISRDNAKNTLYLQMSKVRSEDTALYYCARPGFGNYIYAMDYWGQGTSVTVSS
VL: B5 VL with E1D, S22N, S32F, N45K, S56L, Y96P
B7: chAb2-CZ (conjugate)
VH: QVQLQQPGAELVKPGASVKLSCKASGYTFTSYWMHWVKQRPGQGLEWIGMIHPDSGTTNYNEKFRSKATLTVDKSSSTAYMQLSSLTSEDSAVYYCAVYYGSTYWYFDVWGTGTTVTVSS
VL: DVVMTQTPLSLPVSLGDQAYISCRSSQSLVHINGNTYLHWYRQKPGQSPKLLIYKVSNRFSGVPDRFSGSGSGTDFTLKISRVEAEDLGVYFCSQSTHFPFTFGSGTKLEIK
B8: chAb6 (conjugate)
VH: B5 VH
VL: B5 VL
B9: chAb16 (conjugate)
VH: B6 VH
VL: B5 VL with E1D, S22N, S32F, N45K, S56L, Y96P
modifications: conjugated drug; Synthetic chAb16 VH amino acid sequence; Synthetic chAb16 VL amino acid sequence
B10: chAb2 (conjugate)
VH: B7 VH
VL: B7 VL
modifications: conjugated payload not specified; Synthetic chAb2 VH amino acid sequence; Synthetic chAb2 VL amino acid sequence

The test system of one data set is HCC38 (breast cancer) cells. Description: In vitro cell viability assay (CellTiter-Glo), HCC38. Conditions: ADC with synthon CZ; HCC38 breast cancer cells; viability after 5 days; read-out: Cytotoxicity (HCC38 cell line IC50nM). The class given is cell-based, human. As for the experimental part:
(§1) Nine anti-B7-H3 chimeric antibodies were conjugated to the Bcl-xL inhibiting (Bcl-xLi) synthon CZ (Example 2.1) using conjugation Method A described below. The resulting ADCs (anti-B7-H3 antibodies conjugated to synthon CZ) were tested for binding to cell surface human B7-H3 by FACS (as described in Example 6) and for cell cytotoxicity in cell lines expressing B7-H3. […] Table 6 provides cell surface binding and cytotoxicity activity of anti-B7-H3 chimera ADCs against breast cancer cell HCC38 expressing human B7-H3.
The tumor cell lines HCC38 (breast cancer), NCI-H1650 (NSCLC) and NCI-H847 (small cell lung cancer cell line) were obtained from American Type Culture Collection (ATCC). Cells were grown in 96-well culture plates using recommended growth media overnight at a density of 5×10^3 (HCC38) or 20×10^3 (NCI-H847) or 40×10^3 (NCI-H1650) per well. The following day, treatments were added in fresh media to triplicate wells. Cellular viability was determined 5 days later using the CellTiter-Glo Luminescent Cell Viability Assay kit (Promega), as directed in the manufacturer's protocol. Cell viability was assessed as percentage of control untreated cells.
In general terms: Cellular ATP, detected with luciferase, serves as a proxy for viable cell number.
With B1, the IC50 is 0.26 nM.

For B2, the IC50 stood at 2.01 nM.

B3: the IC50 turned out to be 2.34 nM.

For the molecule B4, the IC50 was 0.18 nM.

Consider B5, for which the IC50 was 81 nM.

Turning to B6, the IC50 came out at 21.9 nM.

In the case of B7, the IC50 is 4.77 nM.

Staying with this data set, now noted: antibody conjugated to synthon CZ.
Turning to B8, the “cytotoxicity in cells expressing human B7-H3 (in words)” value (shortened to “cytotoxicity”) is reported as “weak cytotoxicity”.

Regarding B9, the “cytotoxicity” value was “weak cytotoxicity”.

For B10, the “cytotoxicity” value is listed as “weak cytotoxicity”.

Test system in the next data set: not listed separately
Description: Size exclusion chromatography, % aggregate of ADC. In kind it is physicochemical. Conditions: ADC with synthon CZ, conjugation Method A. As for the experimental part: The DAR and percentage aggregation of ADCs synthesized were determined by LC-MS and size exclusion chromatography (SEC), respectively.
Size exclusion chromatography was performed using a Shodex KW802.5 column in 0.2 M potassium phosphate pH 6.2 with 0.25 mM potassium chloride and 15% IPA at a flow rate of 0.75 ml/min. The peak area absorbance at 280 nm was determined for each of the high molecular weight and monomeric eluents by integration of the area under the curve. The % aggregate fraction of the conjugate sample was determined by dividing the peak area absorbance at 280 nm for the high molecular weight eluent by the sum of the peak area absorbances at […] of the high molecular weight and monomeric eluents multiplied by 100%.
A general note: Size exclusion chromatography separates by hydrodynamic size, large species first.
B1: the “% agg by SEC” value came out at 5.7%.

In the case of B2, the “% agg by SEC” value amounted to 1.9%.

As to B3, the “% agg by SEC” value was 5.6%.

As to B4, the “% agg by SEC” value is recorded as 8.3%.

On to B5, for which the “% agg by SEC” value is reported as 0.5%.

As to B6, the “% agg by SEC” value was found to be 2.3%.

Turning to B7, the “% agg by SEC” value worked out at 5.9%.

Test system in the next data set: not listed separately
Description: Observation after conjugation to synthon (Method A). Conditions: after conjugation to Bcl-xLi synthon CZ. The class given is physicochemical. As for the experimental part:
as §1
A solution of Bond-Breaker™ tris(2-carboxyethyl)phosphine (TCEP) solution (10 mM, 0.017 mL) was added to a solution of antibody (10 mg/mL, 1 mL) preheated to 37° C. The reaction mixture was kept at 37° C. for 1 hour. The solution of reduced antibody was added to a solution of synthon (3.3 mM, 0.160 mL in DMSO) and gently mixed for 30 minutes. The reaction solution was loaded onto a desalting column (PD10, washed with Dulbecco's phosphate-buffered saline [DPBS] 3× before use), followed by DPBS (3 mL). The purified ADC solution was filtered through a 0.2 micron, low protein-binding 13 mm syringe-filter and stored at 4° C.
On to B1, for which the Conjugation observation entry is recorded as “Clear”.

As to B2, the Conjugation observation entry is given as “Clear”.

As for B3, the Conjugation observation result is recorded as “Clear”.

With B4, the Conjugation observation result is “Clear”.

As to B8, the Conjugation observation entry is “precipitated”.

With B5, the Conjugation observation result is reported as “Precipitates”.

Take B6: the Conjugation observation result is reported as “Precipitates”.

In the case of B9, the Conjugation observation result is listed as “precipitated”.

Turning to B10, the Conjugation observation result was “precipitated”.

Turning to B7, the Conjugation observation entry is reported as “Precipitates”.

A further data set deals with NCI-H146 xenograft. In words: NCI-H146 small cell lung cancer xenograft efficacy. In kind it is in vivo, mouse. The following applies: NCI-H146 xenograft in SCID/bg mice; 10 mg/kg IP QDx1. As for the experimental part:
Antibody MSL109 (an IgG1 antibody that binds to cytomegalovirus (CMV) glycoprotein H) was used as a control, both as a naked antibody and as an ADC (conjugated to the same synthon (CZ) as the chAb3, chAb18, and chAb13 antibodies). MSL109 is an isotype matched non-targeting control. The methods of this xenograft assay are described below.
NCI-H146 cells, NCI-1650 cells, and EBC-1 cells were obtained from the American Type Culture Collection (ATCC, Manassas, Va.). The cells were cultured as monolayers in RPMI-1640 (NCI-H146, NCI-H1650) or MEM (EBC-1) culture media (Invitrogen, Carlsbad, Calif.) that was supplemented with 10% Fetal Bovine Serum (FBS, Hyclone, Logan, Utah). To generate xenografts, 5×10^6 viable cells were inoculated subcutaneously into the right flank of immune deficient female SCID/bg mice (Charles River Laboratories, Wilmington, Mass.) respectively. The injection volume was 0.2 mL and composed of a 1:1 mixture of S MEM and Matrigel (BD, Franklin Lakes, N.J.). Tumors were size matched at approximately 200 mm^3. Antibodies and conjugates were formulated in 0.9% sodium chloride for injection and injected intraperitoneally. […] Therapy began within 24 hours after size matching of the tumors. Mice weighed approximately 22 g at the onset of therapy. Tumor volume was estimated two to three times weekly. Measurements of the length (L) and width (W) of the tumor were taken via electronic caliper and the volume was calculated according to the following equation: V=L×W^2/2. Mice were euthanized when tumor volume reached 3,000 mm3 or skin ulcerations occurred. Eight mice were housed per cage. Food and water were available ad libitum. Mice were acclimated to the animal facilities for a period of at least one week prior to commencement of experiments. Animals were tested in the light phase of a 12-hour light: 12-hour dark schedule (lights on at 06:00 hours). As described above, human IgG control antibody (MSL109) was used as a negative control agent.
To refer to efficacy of therapeutic agents, parameters of amplitude (TGImax), durability (TGD) of therapeutic response are used. TGImax is the maximum tumor growth inhibition during the experiment. Tumor growth inhibition is calculated by 100*(1−Tv/Cv) where Tv and Cv are the mean tumor volumes of the treated and control groups, respectively. TGD or tumor growth delay is the extended time of a treated tumor needed to reach a volume of 1 cm^3 relative to the control group. TGD is calculated by 100*(Tt/Ct−1) where Tt and Ct are the median time periods to reach 1 cm^3 of the treated and control groups, respectively.
Consider “MSL109: an IgG1 antibody that binds to cytomegalovirus (CMV) glycoprotein H; isotype matched non-targeting control [reference compound]”, for which the “TGD (%)” value worked out at 0% and the “TGImax (%)” value amounted to 0%.

Take B4: the “TGD (%)” value is listed as 104% and the “TGImax (%)” value turned out to be 81%.
